Measurements from publication PMC2791216, “Phosphorylation of S776 and 14-3-3 Binding Modulate Ataxin-1 Interaction with Splicing Factors” (PLoS ONE, 2009).
Square brackets hold non-standard residues; d marks the D form. Ends that are not written are not given here. Peptide text beside a SMILES is read from it. pS = N[C@@H](COP(=O)(O)O)C(=O)O

What was measured:
U2AF65 UHM, 369-475 = U2AF65 UHM, 369-475 (UniProt P26368); experiment: NMR 15N-HSQC titration; details: reference: unphosphorylated Atx1 ULM peptide; sites S776
Chain of U2AF65 UHM, 369-475 (P26368 whole entry, looked up, tested part not stated, one chain of several): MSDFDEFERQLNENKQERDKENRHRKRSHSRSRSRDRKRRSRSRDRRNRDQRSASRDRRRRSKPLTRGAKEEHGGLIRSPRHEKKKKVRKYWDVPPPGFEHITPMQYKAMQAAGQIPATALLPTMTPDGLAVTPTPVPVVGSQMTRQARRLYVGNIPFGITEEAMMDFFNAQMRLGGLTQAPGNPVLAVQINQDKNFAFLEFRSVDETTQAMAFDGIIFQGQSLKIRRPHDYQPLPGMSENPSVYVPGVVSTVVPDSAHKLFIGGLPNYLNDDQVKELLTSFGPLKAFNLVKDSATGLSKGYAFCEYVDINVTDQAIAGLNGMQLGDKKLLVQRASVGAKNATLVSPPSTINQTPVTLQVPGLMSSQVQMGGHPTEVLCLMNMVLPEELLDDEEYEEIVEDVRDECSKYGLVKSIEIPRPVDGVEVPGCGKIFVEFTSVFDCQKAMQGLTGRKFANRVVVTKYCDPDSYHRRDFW

14-3-3ζ [1] = molecular target: T1, 14-3-3ζ (Homo sapiens, UniProt P63104); experiment: ITC binding of Atx1 ULM peptides to 14-3-3ζ; details: 50 mM sodium phosphate buffer (pH 7.0), 150 mM NaCl, 5 mM DTT, 295 K, average of three measurements, n.b. = binding not detectable
T1 sequence (P63104 1-245): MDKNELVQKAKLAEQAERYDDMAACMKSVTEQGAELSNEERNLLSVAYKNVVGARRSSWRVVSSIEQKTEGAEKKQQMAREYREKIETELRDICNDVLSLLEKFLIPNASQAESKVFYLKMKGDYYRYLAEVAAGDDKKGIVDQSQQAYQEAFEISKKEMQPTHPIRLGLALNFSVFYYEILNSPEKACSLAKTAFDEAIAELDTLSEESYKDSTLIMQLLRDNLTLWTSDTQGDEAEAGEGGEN
From the text: Since S776 phosphorylated Atx1 binds also the 14-3-3 protein [17], we compared the affinity of this interaction. We used a peptide C-terminally extended as compared to the one previously designed to probe interaction with U2AF65 UHM so to include P778 and encompass the complete 14-3-3 ‘mode II’ recognition motif (Atx1_pS_ULM_PE, residues 769–779). We compared the affinities of this peptide with the non-phosphorylated version (Atx1_S_ULM_PE) and with the shorter Atx1_pS_ULM peptide. […] We chose to work with isoform ζ (14-3-3ζ) since it is present in high concentrations in the neuronal nucleus of all the major affected areas in SCA1 brains.
All the proteins were dialyzed against 50 mM sodium phosphate buffer (pH 7.0), 150 mM NaCl and 5 mM DTT. Solutions of 0.025–0.4 mM UHM proteins in the cell were titrated by injections of a total of 295 µl of 0.25–3.9 mM peptide in the syringe in 21 aliquots. The concentrations of the 14-3-3ζ and ATX1 ULM ligands were adjusted to 0.012–0.037 mM and 0.1–0.4 mM respectively. Data were processed with the software MicroCal Origin version 5.0 provided by the manufacturer. All dissociation constants were averages of three measurements.

[2] = molecular target: T2, SPF45 UHM (residues 301–401) (UniProt Q96I25 301-401); experiment: ITC; 50 mM sodium phosphate buffer (pH 7.0), 150 mM NaCl, 5 mM DTT; 295 K; protein in the cell, peptide in the syringe; single-site model; averages of three measurements; details: both partners purified
T2 construct: SPF45, also known as RBM17, UHM domain, residues 301-401; The His6-GST tags (vector pETM30) are TEV-cleavable; also called RBM17 UHM; source: E. coli BL21 (DE3)pLysS, purified (Ni-NTA, SEC)
T2 sequence (looked up): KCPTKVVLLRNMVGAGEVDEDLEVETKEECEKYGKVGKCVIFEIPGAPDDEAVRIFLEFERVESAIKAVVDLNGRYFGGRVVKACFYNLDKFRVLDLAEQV

[3] = molecular target: T3, U2AF65 UHM (residues 369–475) (UniProt P26368 369-475); experiment: as above; details: both partners purified
T3 construct: U2AF65 (splicing factor U2AF 65 kDa subunit), UHM domain, residues 369-475; The His6-GST tags (vector pETM30) are TEV-cleavable; 15N-labelled for the NMR experiments, unlabelled for ITC; also called U2AF65 UHM domain; source: E. coli BL21 (DE3)pLysS, purified (Ni-NTA, SEC)
T3 sequence (P26368 369-475, one chain of several): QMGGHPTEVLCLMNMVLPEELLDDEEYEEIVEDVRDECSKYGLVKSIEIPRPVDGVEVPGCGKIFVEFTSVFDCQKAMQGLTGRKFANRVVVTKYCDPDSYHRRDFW

14-3-3ζ [4] = molecular target: T4, 14-3-3ζ (UniProt P63104 1-245); experiment: as above; details: both partners purified
T4 construct: 14-3-3 protein, isoform zeta; also called 14-3-3 isoform ζ
T4 sequence (looked up): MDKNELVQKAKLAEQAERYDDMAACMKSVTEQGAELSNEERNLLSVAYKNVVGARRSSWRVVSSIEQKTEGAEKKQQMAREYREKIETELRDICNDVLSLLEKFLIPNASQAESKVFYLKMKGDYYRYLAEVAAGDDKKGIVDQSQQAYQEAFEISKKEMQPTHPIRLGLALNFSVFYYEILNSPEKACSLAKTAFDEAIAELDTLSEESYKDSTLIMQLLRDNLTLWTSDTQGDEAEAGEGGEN

[5] = molecular target: T3, U2AF65 UHM (residues 369–475); experiment: ITC; 20 mM sodium phosphate buffer (pH 6.4), 30 mM NaCl, 5 mM DTT; 295 K; protein in the cell, peptide in the syringe; details: both partners purified

Molecule	Kd, 14-3-3ζ (ITC) (14-3-3ζ [1])	Kd [2]	Kd [3]	further results
Ataxin-1 (Atx1) 769-777 (from UniProt P54253) pS776 Atx1 ULM peptide	–	–	–	binding against the reference (U2AF65 UHM, 369-475): same
ATRKRRWAAPE [Atx1_A_ULM_PE]	n.b.	–	–	–
C[C@H](N)C(=O)N[C@H](C(=O)N[C@@H](CCCNC(=N)N)C(=O)N[C@@H](CCCCN)C(=O)N[C@@H](CCCNC(=N)N)C(=O)N[C@@H](CCCNC(=N)N)C(=O)N[C@@H](Cc1c[nH]c2ccccc12)C(=O)N[C@@H](COP(=O)(O)O)C(=O)N[C@@H](C)C(=O)N1CCC[C@H]1C(=O)N[C@@H](CCC(=O)O)C(=O)O)[C@@H](C)O [Atx1_pS_ULM_PE] (H-ATRKRRW[pS]APE-OH)	–	–	–	Kd (14-3-3ζ [1]): 0.4 ± 0.03 µM
ATRKRRWDAPE [Atx1_D_ULM_PE]	n.b.	–	–	–
ATRKRRWSAPE (Ataxin-1 (Atx1), residues 769-779; source: synthetic peptide; bought: Pepceuticals Limited) [Atx1_S_ULM_PE]	–	23.4 ± 1.5 µM	9.2 ± 0.3 µM	–
ATRKRRWAAPE (also called S776A-mutated peptide; S776A mutant peptide; source: synthetic peptide; bought: Pepceuticals Limited) [Atx1_A_ULM_PE]	–	22.5 ± 0.6 µM	8.9 ± 0.4 µM	–
ATRKRRWDAPE (also called S776D peptide; S776D mutant peptide; source: synthetic peptide; bought: Pepceuticals Limited) [Atx1_D_ULM_PE]	–	0.9 ± 0.07 µM	6.4 ± 0.7 µM	–

More lines, main results first:

Kd, 14-3-3ζ (ITC) (14-3-3ζ [1])	Kd [2]	Kd [3]	Molecule	further results
n.b. ^c	–	–	ATRKRRWSAPE [Atx1_S_ULM_PE]	–
–	40 ± 1.6 µM	35.8 ± 1.3 µM	ATRKRRW[pS]APE (Ataxin-1 (Atx1), residues 769-779, S776 phosphorylated; source: synthetic peptide; bought: Pepceuticals Limited) [Atx1_pS_ULM_PE]	–
–	–	18.4 ± 0.7 µM	ATRKRRW[pS]A (Ataxin-1 (Atx1), residues 769-777, S776 phosphorylated; also called phosphorylated Atx1 ULM; source: synthetic peptide; bought: Pepceuticals Limited) [Atx1_pS_ULM]	Kd (14-3-3ζ [4]): 1 ± 0.1 µM; Kd [5]: 0.6 ± 0.08 µM
